Assay [1] deals with T1, E. coli FhuA, outer membrane iron transporter protein (E. coli, UniProt P06971 34-747).
T1 construct: whole, on cells; also called outer membrane iron-transporter (E. coli)
T1 sequence: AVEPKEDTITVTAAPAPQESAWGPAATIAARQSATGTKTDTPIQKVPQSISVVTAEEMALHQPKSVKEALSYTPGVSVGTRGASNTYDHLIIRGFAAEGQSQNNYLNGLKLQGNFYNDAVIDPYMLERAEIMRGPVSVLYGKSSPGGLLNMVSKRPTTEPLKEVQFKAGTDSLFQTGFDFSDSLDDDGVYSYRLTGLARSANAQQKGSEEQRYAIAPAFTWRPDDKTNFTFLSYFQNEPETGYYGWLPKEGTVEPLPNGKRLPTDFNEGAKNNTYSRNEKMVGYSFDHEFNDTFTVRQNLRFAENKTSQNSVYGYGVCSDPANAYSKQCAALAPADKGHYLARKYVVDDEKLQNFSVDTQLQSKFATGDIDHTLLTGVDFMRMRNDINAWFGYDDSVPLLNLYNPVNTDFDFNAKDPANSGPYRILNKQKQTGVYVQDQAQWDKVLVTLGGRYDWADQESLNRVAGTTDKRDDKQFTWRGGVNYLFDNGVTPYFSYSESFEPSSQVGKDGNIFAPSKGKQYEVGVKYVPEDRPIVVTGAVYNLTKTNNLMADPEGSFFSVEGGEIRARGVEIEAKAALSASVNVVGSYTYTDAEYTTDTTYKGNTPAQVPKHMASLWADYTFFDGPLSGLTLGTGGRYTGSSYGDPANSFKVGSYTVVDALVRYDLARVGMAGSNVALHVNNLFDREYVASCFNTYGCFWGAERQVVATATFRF
Kind of assay: fluorescence microscopy, live E. coli cells expressing FhuA, 50 nM His-tagged pb5, detected with fluorescent anti-His antibody.

Assay [2] concerns the target T1, E. coli FhuA, outer membrane iron …. The assay can be described thus: flow cytometry titration with 2.5 to 20 nM Qdot-pb5, FhuA on R. eutropha cells against FhuA on E. coli cells (FIG. 19). In general terms: Flow cytometry measures light scatter and fluorescence of single cells or particles in a stream.
Assay [3] has the same target. The assay can be described thus: flow cytometry, FhuA on E. coli cells against FhuA on R. eutropha cells (FIG. 14E).

B1: Bacteriophage T5 protein pb5 expressed in E. coli with a 6x-His tag (ligand)
chain: MSFFAGKLNNKSILSLRRGSGGDTNQHINPDSQTIFHSDMSHVIITETHSTGLRLDQGAGDYYWSEMPSRVTQLHNNDPNRVVLTEIEFSDGSRHMLSGMSMGVGAKAYGIINPQIMSQGGLKTQITASADLSLDVGYFNTGTSGTIPQKLRDGTGCQHMFGAFSGRRGFASSAMYLGGAALYKSAWSGSGYVVADAGTLTIPSDYVRHPGARNFGFNAIYVRGRSCNRVLYGMEGPNYTTGGAVQGASSSGALNFTYNPSNPESPKYSVGFARADPTNYAYWESMGDPNDSANGPIGIYSEHLGIYPSKITWYVTNLVYNGSGYNIDGGLFNGNDIKLSPREFIIKGVNVNNTSWKFINFIEKNFNVGNRADFRDVGCNLSKDSPSTGISGIATFGLPTTESNNAPSIKGGNVGGLHANVVSIYNFLPSASWYVSSNPPKIGNNYGDVWSENLLPLRLLGGSGSTILSGNIVFQGNGSVHVGTVGLDLNSSRNGAIVCTMEFIDDTWLSAGGIGCFNPTEMLSQGAEYGDSRFRIGGNTINKKLHQILSLPAGEYVPFFTIKGTVVNACKLQAAAYNPTPYWVSGLPGSVGQTGYYTLTYYMRNDGNNNISIWLDSSMSNIIGMKACLPNIKLIIQRLT
notes: it is placed C-terminal here only because of the label 'pb5-His'; also called pb5-His; His-pb5; not shown: 6x-His tag
As to B1, the binding result in assay [1] is reported as “binds”.

B2: Qdot-pb5 conjugate (CdSe/ZnS quantum dots conjugated to pb5 by carbodiimide coupling) (other)
chain: MSFFAGKLNNKSILSLRRGSGGDTNQHINPDSQTIFHSDMSHVIITETHSTGLRLDQGAGDYYWSEMPSRVTQLHNNDPNRVVLTEIEFSDGSRHMLSGMSMGVGAKAYGIINPQIMSQGGLKTQITASADLSLDVGYFNTGTSGTIPQKLRDGTGCQHMFGAFSGRRGFASSAMYLGGAALYKSAWSGSGYVVADAGTLTIPSDYVRHPGARNFGFNAIYVRGRSCNRVLYGMEGPNYTTGGAVQGASSSGALNFTYNPSNPESPKYSVGFARADPTNYAYWESMGDPNDSANGPIGIYSEHLGIYPSKITWYVTNLVYNGSGYNIDGGLFNGNDIKLSPREFIIKGVNVNNTSWKFINFIEKNFNVGNRADFRDVGCNLSKDSPSTGISGIATFGLPTTESNNAPSIKGGNVGGLHANVVSIYNFLPSASWYVSSNPPKIGNNYGDVWSENLLPLRLLGGSGSTILSGNIVFQGNGSVHVGTVGLDLNSSRNGAIVCTMEFIDDTWLSAGGIGCFNPTEMLSQGAEYGDSRFRIGGNTINKKLHQILSLPAGEYVPFFTIKGTVVNACKLQAAAYNPTPYWVSGLPGSVGQTGYYTLTYYMRNDGNNNISIWLDSSMSNIIGMKACLPNIKLIIQRLT
modifications: CdSe/ZnS quantum dot (Qdot) coupled by carbodiimide (EDC) chemistry; site of coupling and number of pb5 per Qdot not stated
notes: Two colours were used in the pulse labeling (Qdot532-pb5, Qdot602-pb5); the protein part is the same purified His-tagged pb5; also called Qdot-pb5s; Qdot532-pb5; not shown: 6x-His tag of the purified pb5
As for B2, in assay [2], the “fold lower total binding, R. eutropha cells against E. coli cells” value is about 3.4 times lower. The “fold binding efficiency, E. coli cells against R. eutropha cells” value in assay [3] was about 3.4 fold.

The values above are taken from patent US9777300 (University of California, dated 2017).
